# Results taken from paper PMC12872393 (Life Science Alliance, 2026).
# No end group written: not given here. AF488 = AF Dye 488 fluorescent label
# Tests used:
# [1] = target: T1, monomeric GATE16 (mGATE16) (UniProt P60520 1-117); experiment: fluorescence polarisation; competition anisotropy: 1.5 μM mGATE16 with 10 nM labeled ATG4B peptide; increasing unlabeled peptide; 20 mM Tris, 150 mM NaCl, pH 7.5; RT; conditions: both partners purified
# T1 construct: GATE16, LC3/GABARAP-family protein, from pGex-4T-2_GATE-16 after thrombin cleavage; source: E. coli BL21 Tuner DE3, purified as GST-GATE16, GST removed with thrombin, SEC
# T1 sequence (P60520 whole entry): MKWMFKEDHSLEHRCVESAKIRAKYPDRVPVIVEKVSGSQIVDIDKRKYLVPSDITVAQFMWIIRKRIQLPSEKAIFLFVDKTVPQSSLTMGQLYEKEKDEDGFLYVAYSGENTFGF
# [2] = target: T2, His6-GATE16 (UniProt P60520 1-117); experiment: fluorescence polarisation; direct anisotropy: 10 nM labeled ATG4B peptide with increasing His6-GATE16; 20 mM Tris, 150 mM NaCl, pH 7.5; RT; apparent KD; conditions: both partners purified
# T2 construct: GATE16, LC3/GABARAP-family protein; also called monomeric His6-GATE16; His6-tagged GATE16; source: E. coli BL21 Tuner DE3, purified (Ni-NTA, SEC)
# T2 sequence (P60520 whole entry): as above
binder,measurement,setting,value
"AF488-EDEDFEILSL (also called fluorescently labeled ATG4B peptide; labeled ATG4B peptide; source: synthetic peptide (MIT Biopolymers Laboratory, HPLC-purified)) [dye-labeled ATG4B LIR peptide (EDEDFEILSL)]",binding result,[1],binds
same,binding result,[2],binds
